# Source: article doi:10.1101/2021.08.25.457680
# Where no end group is shown, it is not given here.
# Assays:
# [1] = target: hDLG1 PDZ1+2 tandem (human) (UniProt Q12959); test: NMR titration
# [2] = target: hDLG1 PDZ1 domain (human); test: NMR titration
# [3] = target: hDLG1 PDZ1 domain (human); test: ITC
# [4] = target: hDLG1 PDZ2 domain (human); test: ITC
# [5] = target: syntenin-1 PDZ1 domain (human); test: NMR titration
# [6] = target: syntenin-1 PDZ2 domain (human); test: NMR titration
# syntenin-1 PDZ2 domain (human), sequence (O00560 whole entry, the tested form may be a part): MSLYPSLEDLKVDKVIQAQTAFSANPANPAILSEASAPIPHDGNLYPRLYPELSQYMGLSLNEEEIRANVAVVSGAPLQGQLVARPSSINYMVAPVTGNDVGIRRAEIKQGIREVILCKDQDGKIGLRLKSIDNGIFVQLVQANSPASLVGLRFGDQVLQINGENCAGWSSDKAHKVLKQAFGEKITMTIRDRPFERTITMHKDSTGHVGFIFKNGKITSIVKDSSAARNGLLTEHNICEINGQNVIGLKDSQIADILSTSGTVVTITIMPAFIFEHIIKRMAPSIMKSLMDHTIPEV
# hDLG1 PDZ1 domain (human), sequence (Q12959 219-551): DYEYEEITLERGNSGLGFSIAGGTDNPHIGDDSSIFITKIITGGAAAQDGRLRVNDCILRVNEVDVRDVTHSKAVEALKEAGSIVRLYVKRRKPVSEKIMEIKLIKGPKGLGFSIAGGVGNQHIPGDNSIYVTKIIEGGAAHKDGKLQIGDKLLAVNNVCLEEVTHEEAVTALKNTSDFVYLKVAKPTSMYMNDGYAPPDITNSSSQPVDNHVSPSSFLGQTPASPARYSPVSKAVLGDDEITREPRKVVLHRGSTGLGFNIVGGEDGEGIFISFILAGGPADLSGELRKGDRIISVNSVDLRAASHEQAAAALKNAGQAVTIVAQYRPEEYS
# hDLG1 PDZ2 domain (human), sequence (Q12959 219-551): as above
# syntenin-1 PDZ1 domain (human), sequence (O00560 whole entry, the tested form may be a part): as the sequence (O00560 whole entry, the tested form may be a part) above
molecule,measurement,setting,value
Tax2 10mer peptide (last 10 amino acids of Tax-2),Kd,[1],> 5000 µM
SEKHFRETEV (not fully specified (C-terminus)) [C-terminally amidated Tax-1 10mer peptide (Tax-1mod)],Kd,[2],951 µM
SEKHFRETEV [Tax-1 10mer peptide (last 10 C-terminal amino acids of Tax-1)],Kd,[3],2.7 µM
same,dH,[3],-8 kcal/mol
same,stoichiometry N,[3],1.03
same,Kd,[4],0.9 µM
same,dH,[4],-10.4 kcal/mol
same,stoichiometry N,[4],0.99
same,Kd,[5],2580 µM
same,Kd,[6],1550 µM
